Test [1] concerns the target T1, human SIRPA overexpressed on CHO cells (human, UniProt P78324 31-504).
T1 construct: also called CHO-huSIRPA
The test can be described thus: flow, CHO-huSIRPA.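 Further: Anti-SIRPA antibodies applied at 1 µg/mL for 1 h on ice, binding read by flow cytometry using a PE-labelled secondary antibody.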

The target of test [2] is T2, mouse SIRPA overexpressed on CHO cells (mouse, UniProt P97797 32-513).
T2 construct: also called CHO-muSIRPA
T2 sequence: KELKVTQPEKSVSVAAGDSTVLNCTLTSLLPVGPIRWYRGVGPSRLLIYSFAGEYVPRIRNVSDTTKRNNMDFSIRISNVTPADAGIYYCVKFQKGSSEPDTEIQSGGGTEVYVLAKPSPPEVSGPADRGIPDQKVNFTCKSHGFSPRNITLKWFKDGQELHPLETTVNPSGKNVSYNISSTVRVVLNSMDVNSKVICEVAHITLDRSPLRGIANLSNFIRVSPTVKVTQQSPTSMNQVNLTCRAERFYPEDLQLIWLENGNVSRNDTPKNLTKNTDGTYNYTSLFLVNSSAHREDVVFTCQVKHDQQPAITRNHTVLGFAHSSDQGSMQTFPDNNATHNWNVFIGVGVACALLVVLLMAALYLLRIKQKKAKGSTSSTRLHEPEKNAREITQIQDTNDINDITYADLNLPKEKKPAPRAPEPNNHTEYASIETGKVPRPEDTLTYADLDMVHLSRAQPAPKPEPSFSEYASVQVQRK
The test can be described thus: flow, CHO-muSIRPA.

For test [3], the target named is T2, mouse SIRPA overexpressed on CHO cells. Kind of test: flow, CHO-muSIRPA. This is another data set of the same source.
Test [4] concerns the target Human SIRPb D1 Fc (human, UniProt O00241 30-148, limits assumed). Kind of test: ForteBio IgG avid.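 Further: antibody IgG captured on AHQ biosensors, then 100 nM Fc-fused SIRP antigen applied for 3 min, followed by 3 min buffer dissociation, kinetics fitted to a 1:1 model.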 Background: In BLI a coated tip is dipped into the sample, and binding shifts an interference pattern.
Procedure: (§1) Briefly, ForteBio affinity measurements were performed by loading IgGs on-line onto AHQ sensors. Sensors were equilibrated off-line in assay buffer for 30 min and then monitored on-line for 60 seconds for baseline establishment. For avid binding measurement, sensors with loaded IgGs were exposed to 100 nM antigen (human SIRPA or SIRPβ1 Fc fusion) for 3 min, afterwards they were transferred to assay buffer for 3 min for off-rate measurement. Additional avid binding was determined by loading biotinylated SIRPA monomer on SA sensors and exposure to 100 nM IgG in solution. Monovalent binding measurements were obtained by loading human SIRPA or SIRPβ1 Fc fusion antigens to AHQ sensor and followed by exposure to 100 nM anti-SIRPA antibody Fab. Additional monovalent measurements were made by loading biotinylated human SIRPA or SIRPβ1 monomer to SA sensor followed by exposure to 100 nM Fab in solution. Kinetics data were fit using a 1:1 binding model in the data analysis software provided by ForteBio.
For test [5], the target named is T3, Mouse SIRPA D1 Fc (mouse, UniProt P97797 32-150, limits assumed).
T3 sequence: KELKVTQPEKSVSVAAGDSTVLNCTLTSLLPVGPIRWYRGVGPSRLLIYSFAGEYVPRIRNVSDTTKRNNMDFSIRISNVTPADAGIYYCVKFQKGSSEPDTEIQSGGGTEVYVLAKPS
The test can be described thus: ForteBio IgG avid.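 Further: antibody IgG captured on AHQ biosensors, then 100 nM Fc-fused SIRP antigen applied for 3 min, followed by 3 min buffer dissociation, kinetics fitted to a 1:1 model.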
Procedure: as §1

Positions count from the first letter of the chain named.

Human SIRPb D1 Fc, sequence (O00241 30-148 limits assumed): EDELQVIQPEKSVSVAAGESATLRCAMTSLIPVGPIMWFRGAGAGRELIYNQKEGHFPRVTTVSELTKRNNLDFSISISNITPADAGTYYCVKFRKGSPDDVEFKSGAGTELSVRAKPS

B1: SA-17 (antibody, V domains shown)
VH: QVQLVQSGAEVKKPGSSVKVSCKASGGTFSSYAISWVRQAPGQGLEWMGGIIPIFGTASYAQKFQGRVTITADESTSTAYMELSSLRSEDTAVYYCARDLSAFYVGPFDYWGQGTLVTVSS
VL: EIVMTQSPATLSVSPGERATLSCRASQSVSSSLAWYQQKPGQAPRLLIYGASTRATGIPARFSGSGSGTEFTLTISSLQSEDFAVYYCQQDYIWPLTFGGGTKVEIK
notes: IgG
As to B1, the “relative MFI” value in test [1] came out at 0.989 fold over background; in test [3] it was 0.476 fold over background. In addition, the binding result in test [2] is “no binding (tested: 1 ug/ml)”; in test [4], “no binding (tested: 100 nM)”; in test [5], “no binding (tested: 100 nM)”.

B2: SA-10 (antibody, V domains shown)
VH: EVQLVESGGGLVQPGRSLRLSCAASGFTFDDYAMHWVRQAPGKGLEWVSGITWNSGSIGYADSVKGRFTISRDNAKNSLYLQMNSLRAEDTALYYCAKGKQYSANYFDYWGQGTLVTVSS
VL: DIQMTQSPSTLSASVGDRVTITCRASQSISSWLAWYQQKPGKAPKLLIYEASSLESGVPSRFSGSGSGTEFTLTISSLQPDDFATYYCQQDNSLPYTFGGGTKVEIK
notes: IgG
As for B2, the results for the “relative MFI” value in test [1] and in test [3] were 4.62 fold over background and 0.583 fold over background, respectively. For the same molecule, the results for the binding result in test [2], in test [4] and in test [5] were “no binding (tested: 1 ug/ml)”, “no binding (tested: 100 nM)” and “no binding (tested: 100 nM)”, respectively.

B3: SA-55 (antibody, V domains shown)
VH: EVQLVESGGGLVQPGGSLRLSCAASGFTFSSYWMSWVRQAPGKGLEWVANIKQDGSEKYYVDSVKGRFTISRDNAKNSLYLQMNSLRAEDTAVYYCARGSPYYDAYDFDLWGRGTLVTVSS
VL: B2 VL with M4L, S28A, E50D, D91Y, N92E, L94F, Y96W
notes: IgG
Take B3: the binding result in test [2] is recorded as “no binding (tested: 1 ug/ml)”; in test [5] it was “no binding (tested: 100 nM)”. For the same molecule, the “relative MFI” value in test [3] worked out at 0.464 fold over background.

B4: SA-46 (antibody, V domains shown)
VH: EVQLLESGGGLVQPGGSLRLSCAASGFTFSTYAMSWVRQAPGKGLEWVSAISGSGGSTYYADSVKGRFTISRDNSKNTLYLQMNSLRAEDTAVYYCARESYDSSLHYYGMDVWGQGTTVTVSS
VL: EIVLTQSPGTLSLSPGERATLSCRASQSVSSSYLAWYQQKPGQAPRLLIYGASSRATGIPDRFSGSGSGTDFTLTISRLEPEDFAVYYCQQHFSLPPTFGGGTKVEIK
notes: IgG
As to B4, the binding result in test [2] was “no binding (tested: 1 ug/ml)”; in test [5], “no binding (tested: 100 nM)”. Besides, the “relative MFI” value in test [3] was 0.476 fold over background.

B5: SA-11 (antibody, V domains shown)
VH: EVQLVESGGGLVQPGRSLRISCAASGFTFGDYAMHWVRQAPGKGLEWVSGISWNSGSIGYADSVKGRFTISRDNAKNSLYLQMNSLRAEDTALYYCAKTRYGYYSYDFDLWGRGTLVTVSS
VL: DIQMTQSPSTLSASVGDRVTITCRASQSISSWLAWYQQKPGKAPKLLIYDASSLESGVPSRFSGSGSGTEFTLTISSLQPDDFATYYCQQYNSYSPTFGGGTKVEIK
notes: IgG
As to B5, the “relative MFI” value came out at 0.972 fold over background in test [1] and 0.851 fold over background in test [3]. Moreover, the binding result in test [2] is “no binding (tested: 1 ug/ml)”; in test [4], “no binding (tested: 100 nM)”; in test [5], “no binding (tested: 100 nM)”.

B6: SA-9 (antibody, V domains shown)
VH: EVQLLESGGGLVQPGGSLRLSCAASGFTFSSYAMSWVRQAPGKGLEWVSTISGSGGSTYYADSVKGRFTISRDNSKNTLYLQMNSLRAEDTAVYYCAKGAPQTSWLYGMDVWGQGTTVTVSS
VL: DIQMTQSPSSVSASVGDRVTITCRASQGISSWLAWYQQKPGKAPKLLIYAASSLQSGVPSRFSGSGSGTDFTLTISSLQPEDFATYYCQQAYLYPITFGGGTKVENQ
notes: IgG
For the molecule B6, the binding result is on record as “no binding (tested: 1 ug/ml)” in test [2] and “no binding (tested: 100 nM)” in test [5]. In addition, the “relative MFI” value in test [3] stood at 0.646 fold over background.

B7: SA-33 (antibody, V domains shown)
VH: QVQLVQSGAEVKKPGSSVKVSCKASGGTFSSYAISWVRQAPGQGLEWMGGIIPIFGTASYAQKFQGRVTITADESTSTAYMELSSLRSEDTAVYYCARDVGMARGDPYGMDVWGQGTTVTVSS
VL: B6 VL with Y49S, Q89L, L93S, Y94F, I96F, N106I, Q107K
notes: IgG
B7: the binding result is listed as “no binding (tested: 1 ug/ml)” in test [2] and “no binding (tested: 100 nM)” in test [5]. For the same molecule, the “relative MFI” value in test [3] turned out to be 0.708 fold over background.

B8: SA-18 (antibody, V domains shown)
VH: EVQLVESGGGLVQPGGSLRLSCAASGFTFSSYWMSWVRQAPGKGLEWVANIKSDGSEKYYVDSVKGRFTISRDNAKNSLYLQMNSLRAEDTAVYYCARDLSYEPSYPFDIWGQGTMVTVSS
VL: B6 VL with Y92L, L93S, Y94F, I96F, N106I, Q107K
notes: IgG
As to B8, the “relative MFI” value in test [1] came out at 2.13 fold over background; in test [3] it was 0.56 fold over background. For the same molecule, the binding result was “no binding (tested: 1 ug/ml)” in test [2], “no binding (tested: 100 nM)” in test [4] and “no binding (tested: 100 nM)” in test [5].

B9: SA-5 (antibody, V domains shown)
VH: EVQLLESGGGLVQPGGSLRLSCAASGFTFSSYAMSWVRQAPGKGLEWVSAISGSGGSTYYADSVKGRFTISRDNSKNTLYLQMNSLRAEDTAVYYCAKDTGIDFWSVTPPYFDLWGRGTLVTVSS
VL: B6 VL with M4L, G28D, A91G, L93I, Y94F, I96R, N106I, Q107K
notes: IgG; also called SA-5 (parental)
As for B9, the binding result was “no binding (tested: 1 ug/ml)” in test [2] and “no binding (tested: 100 nM)” in test [5]. Moreover, the “relative MFI” value in test [3] stood at 0.533 fold over background.

B10: SA-49 (antibody, V domains shown)
VH: EVQLVESGGGLVKPGGSLRLSCAASGFTFSSYSMNWVRQAPGKGLEWVSSISSSSSYIYYADSVKGRFTISRDNAKNSLYLQMNSLRAEDTAVYYCARGAPSMQYSPYYYYGMDVWGQGTTVTVSS
VL: B6 VL with A91V, Y92S, I96P, N106I, Q107K
notes: IgG
Turning to B10, the binding result in test [2] was “no binding (tested: 1 ug/ml)”; in test [5], “no binding (tested: 100 nM)”. Moreover, in test [3], the “relative MFI” value worked out at 0.53 fold over background.

B11: SA-54 (antibody, V domains shown)
VH: QLQLQESGPGLVKPSETLSLTCTVSGGSISSSSYYWGWIRQPPGKGLEWIGSIYYSGSTYYNPSLKSRVTISVDTSKNQFSLKLSSVTAADTAVYYCARGSGIAAADTDGLPMDVWGQGTTVTVSS
VL: B6 VL with A91V, Y94F, N106I, Q107K
notes: IgG
In the case of B11, the results for the binding result in test [2] and in test [5] were “no binding (tested: 1 ug/ml)” and “no binding (tested: 100 nM)”, respectively. In test [3], the “relative MFI” value was 0.461 fold over background.

B12: SA-8 (antibody, V domains shown)
VH: QVQLVESGGGVVQPGRSLRLSCAASGFTFSSYGMHWVRQAPGKGLEWVAVISYDGSNKYYADSVKGRFTISRDNSKNTLYLQMNSLRAEDTAVYYCAKEPRSYWHGYGMDVWGQGTTVTVSS
VL: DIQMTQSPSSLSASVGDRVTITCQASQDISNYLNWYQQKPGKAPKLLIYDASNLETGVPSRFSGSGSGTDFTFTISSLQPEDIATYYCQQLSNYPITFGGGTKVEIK
notes: IgG; also called SA-8 (parental)
As for B12, the entries for the “relative MFI” value in test [1] and in test [3] were 57.8 fold over background and 0.5 fold over background, respectively. Also, the values for the binding result in test [2] and in test [5] were “no binding (tested: 1 ug/ml)” and “no binding (tested: 100 nM)”, respectively.

B13: SA-15 (antibody, V domains shown)
VH: QVQLVQSGAEVKKPGSSVKVSCKASGGTFSSYAISWVRQAPGQGLEWMGGIIPIFGTANYAQKFQGRVTITADESTSTAYMELSSLRSEDTAVYYCARDGSYSYATYWGQGTLVTVSS
VL: EIVLTQSPATLSLSPGERATLSCRASQSVSSYLAWYQQKPGQAPRLLIYDASNRATGIPARFSGSGSGTDFTLTISSLEPEDFAVYYCQQPYNFPLTFGGGTKVEIK
notes: IgG
Consider B13, for which the “relative MFI” value in test [1] came out at 0.768 fold over background; in test [3], 0.512 fold over background. Further, the binding result in test [2] is listed as “no binding (tested: 1 ug/ml)”; in test [5], “no binding (tested: 100 nM)”. Further, binding in test [4] was characterised by a dissociation constant (Kd) of 28.4 nM.

B14: SA-24 (antibody, V domains shown)
VH: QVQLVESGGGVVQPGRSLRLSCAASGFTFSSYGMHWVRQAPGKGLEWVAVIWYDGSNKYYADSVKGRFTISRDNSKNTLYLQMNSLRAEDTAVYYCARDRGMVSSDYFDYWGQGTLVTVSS
VL: B13 VL with P91R, Y92L, N93D, F94W, L96Y
notes: IgG
Regarding B14, the results for the binding result in test [2] and in test [5] were “no binding (tested: 1 ug/ml)” and “no binding (tested: 100 nM)”, respectively. In addition, the “relative MFI” value in test [3] came out at 0.542 fold over background.

B15: SA-51 (antibody, V domains shown)
VH: QVQLVQSGAEVKKPGSSVKVSCKASGGTFSSYAISWVRQAPGQGLEWMGSIIPIFGTANYAQKFQGRVTITADESTSTAYMELSSLRSEDTAVYYCARGGYAAGTDYYMGVWGKGTTVTVSS
VL: not shown
notes: IgG
With B15, the figures for the binding result in test [2] and in test [5] were “no binding (tested: 1 ug/ml)” and “no binding (tested: 100 nM)”, respectively.

What is called Kd is the concentration at which binding is half-saturated.

Source of the values: patent US20240270866A1 (Alector, published 2024).
